Data taken from PMC4456216 (Nature structural & molecular biology, 2015).

B1: BMAL2 transactivation domain (TAD), residues 540-579 (domain or fragment, mouse, UniProt Q2VPD4 540-579, looked up)
chain: LGFDVLCDSDSIDMAAFMNYLEAEGGLGDPGDFSDIQWAL
B2: mouse CRY1 CC peptide (residues 470-503) (peptide)
peptide: MVNHAEASRLNIERMKQIYQQLSRYRGLGLLASV
B3: mouse CBP KIX domain (domain or fragment)
chain: not shown

Legend:
[1] = target: p300 KIX domain (residues 565-653) (mouse, UniProt B2RWS6 565-653); experiment: NMR titration
[2] = target: B1; experiment: ITC

p300 KIX domain (residues 565-653), sequence (B2RWS6 565-653): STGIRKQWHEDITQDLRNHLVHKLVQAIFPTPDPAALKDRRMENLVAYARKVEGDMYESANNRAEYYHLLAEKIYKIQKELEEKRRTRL

Binder | binding result [1] | stoichiometry N [2]
B1 | binds | 
B2 |  | 0.7
B3 |  | 0.7
